Reference: US20090130105A1 (Biogen, published 2009)

Legend:
[1] = target: T1, human IGF-1R(1-902)-His10 (human, UniProt P08069 31-932); assay: SPR competition (Biacore 3000): soluble antibody titrated into 40 nM hIGF-1R-His, mixture injected over immobilized M14-G11
T1 construct: Bought from R&D Systems (305-GR-050); also called hIGF-1R-His10; hIGF-1R-His
Method: Regeneration was achieved by three 10 μL injections of 0.1 M glycine, pH 2.0. 100% hIGF-1R-His binding to each antibody was determined by the signal above the baseline under mass transport-limiting conditions 60 seconds into the injection.

human IGF-1R(1-903)-Fc [2] = target: T2, human IGF-1R(1-903)-Fc (human, UniProt P08069 31-933); assay: IGF-1 blocking ELISA at 20 nM IGF-1 His on biotinylated hIGF-1R-Fc
T2 construct: also called hIGF-1R-Fc; SDWT; not shown: human IgG1 Fc, C-terminal tag
T2 sequence (P08069 31-933): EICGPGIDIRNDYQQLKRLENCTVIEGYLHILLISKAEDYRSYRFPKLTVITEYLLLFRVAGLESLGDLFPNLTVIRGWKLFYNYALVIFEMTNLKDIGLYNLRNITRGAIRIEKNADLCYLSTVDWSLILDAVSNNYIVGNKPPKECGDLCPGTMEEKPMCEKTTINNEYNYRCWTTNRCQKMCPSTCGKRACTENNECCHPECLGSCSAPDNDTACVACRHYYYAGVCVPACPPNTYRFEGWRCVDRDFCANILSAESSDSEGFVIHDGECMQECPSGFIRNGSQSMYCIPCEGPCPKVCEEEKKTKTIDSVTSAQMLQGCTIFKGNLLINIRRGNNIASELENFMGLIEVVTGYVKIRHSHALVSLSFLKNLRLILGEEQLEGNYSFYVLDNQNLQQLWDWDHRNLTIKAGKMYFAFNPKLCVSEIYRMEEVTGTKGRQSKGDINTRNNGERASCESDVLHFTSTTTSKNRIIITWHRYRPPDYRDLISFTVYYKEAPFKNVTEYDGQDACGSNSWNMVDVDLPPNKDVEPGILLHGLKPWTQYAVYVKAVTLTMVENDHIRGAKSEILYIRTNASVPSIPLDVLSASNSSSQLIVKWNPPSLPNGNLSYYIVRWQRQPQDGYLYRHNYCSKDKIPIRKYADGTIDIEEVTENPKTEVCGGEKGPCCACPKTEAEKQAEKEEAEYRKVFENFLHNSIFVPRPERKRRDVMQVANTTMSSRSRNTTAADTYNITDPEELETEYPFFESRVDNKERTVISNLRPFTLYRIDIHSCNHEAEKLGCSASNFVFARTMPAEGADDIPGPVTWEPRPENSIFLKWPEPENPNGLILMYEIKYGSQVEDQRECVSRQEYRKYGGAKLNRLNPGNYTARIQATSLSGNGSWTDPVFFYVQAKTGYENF
Method: (§1) The dilutions were added to the plates in duplicate at 100 μL/well and the plates were incubated at RT for 1 hour. The plates were then washed four times with 200 μL/well PBST. An HRP-conjugated anti-Histag antibody (Penta-His HRP Conjugate, QIAGEN, Cat. No. 1014992) was diluted 1:1000 in PBST and added to plates at 100 μL/well, and the plates were incubated at RT for one hour. The plates were then washed four times with 200 μL/well PBST. SureBlue Reserve TMB Microwell Peroxidase Substrate (KPL, Cat. No. 53-00-01) was added to plates at 100 μL/well followed by 1% phosphoric acid at 100 μL/well once the desired reaction was observed. The absorbance of each well was determined at 450 nm, and the results were normalized and plotted against the log of antibody concentration.
(§2) Ligand Blocking Properties.

[3] = target: T3, human IGF-1R on H322M non-small cell lung cancer cells (human, UniProt P08069 31-1367); assay: flow cytometry on H322M cells, anti-human Fab PE secondary (FIG. 55A)
T3 construct: Endogenous receptor of the tumor cell line; also called cell surface IGF-1R
T3 sequence (P08069 31-1367, stated change not applied): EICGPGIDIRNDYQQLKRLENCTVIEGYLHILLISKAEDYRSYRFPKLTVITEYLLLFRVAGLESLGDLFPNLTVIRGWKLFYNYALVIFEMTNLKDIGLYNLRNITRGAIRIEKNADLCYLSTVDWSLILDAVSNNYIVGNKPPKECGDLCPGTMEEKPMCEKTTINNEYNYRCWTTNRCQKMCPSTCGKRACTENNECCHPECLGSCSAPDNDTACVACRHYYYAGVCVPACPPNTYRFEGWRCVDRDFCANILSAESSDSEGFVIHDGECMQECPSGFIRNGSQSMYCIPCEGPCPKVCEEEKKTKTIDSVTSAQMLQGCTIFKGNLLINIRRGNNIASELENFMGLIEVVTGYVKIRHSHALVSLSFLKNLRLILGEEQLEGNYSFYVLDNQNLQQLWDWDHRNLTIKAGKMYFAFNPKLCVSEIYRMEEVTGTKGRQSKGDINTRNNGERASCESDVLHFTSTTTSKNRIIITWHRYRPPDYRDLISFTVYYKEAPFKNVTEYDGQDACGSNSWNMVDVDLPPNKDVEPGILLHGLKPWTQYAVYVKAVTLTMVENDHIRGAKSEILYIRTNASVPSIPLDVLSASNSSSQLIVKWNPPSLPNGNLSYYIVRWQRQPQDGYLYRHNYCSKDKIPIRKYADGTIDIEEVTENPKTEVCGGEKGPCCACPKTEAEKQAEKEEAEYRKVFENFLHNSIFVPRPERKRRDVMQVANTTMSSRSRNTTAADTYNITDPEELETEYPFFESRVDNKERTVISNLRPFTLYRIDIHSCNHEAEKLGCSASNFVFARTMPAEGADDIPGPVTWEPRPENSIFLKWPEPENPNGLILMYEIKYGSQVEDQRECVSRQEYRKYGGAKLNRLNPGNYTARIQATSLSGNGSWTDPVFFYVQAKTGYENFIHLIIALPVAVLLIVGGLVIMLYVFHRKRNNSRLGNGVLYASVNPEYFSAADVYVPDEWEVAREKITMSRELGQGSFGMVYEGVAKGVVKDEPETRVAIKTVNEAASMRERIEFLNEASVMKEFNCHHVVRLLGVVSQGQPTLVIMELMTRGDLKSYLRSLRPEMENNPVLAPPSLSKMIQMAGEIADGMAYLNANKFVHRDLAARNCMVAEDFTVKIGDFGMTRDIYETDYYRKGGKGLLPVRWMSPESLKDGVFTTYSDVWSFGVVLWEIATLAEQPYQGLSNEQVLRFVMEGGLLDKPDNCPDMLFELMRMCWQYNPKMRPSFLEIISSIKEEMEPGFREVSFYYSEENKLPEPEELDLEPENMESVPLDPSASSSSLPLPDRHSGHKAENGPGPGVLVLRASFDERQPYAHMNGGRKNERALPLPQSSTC
Method: (§3) Cell lines were routinely cultured no greater than 20 passages. Flow cyotometric analysis of antibody binding to human cancer cells. Cells were lifted with cell dissociation buffer (Gibco catalog #13151-014), counted, washed and adjusted to 5×10⁶ cells/ml. Cells (2.5×10⁵; 50 uL) were added to each well of a 96-well round bottom plate (Costar #3799). Purified antibodies were tested at a starting concentration of 300 nM with serial half-log dilutions in FACS buffer. FACS buffer used throughout the assay was PBS (without Ca++/Mg++) containing 5% FBS. Samples were incubated on ice for 30 minutes, washed 3× with 200 uL FACS buffer and centrifuged at 1200 rpm for 3 minutes at 4° C. C2B8 (rituximab, IgG1) was used as a negative control. […] Samples were incubated for an additional 30 minutes on ice, shielded from light. Cells were washed as described above and resuspended in 100 μl FACS buffer containing propidium iodide (PI) for dead cell exclusion (BD Pharmingen, catalog# 51-66211E or 556463; use at 1:500 final in FACS buffer). Samples were run in triplicate using the FACSArray flow cytometer (Becton Dickinson) with 5000 live events collected per sample. Data analysis was performed using the GraphPad Prism version 5.0 software (GraphPad Software Inc., 11452 El Camino Real #215, San Diego, Calif. 92130). Results. […]

sIGF-1R(1-903) [4] = target: T4, sIGF-1R(1-903) (human, UniProt P08069 31-933); assay: ITC, 25 °C; footnote a: affinity too high for accurate measurement
T4 construct: also called soluble IGF-1R ectodomain
T4 sequence (P08069 31-933): as the sequence (P08069 31-933) above
Method: (§4) Isothermal Titration Calorimetry (ITC). […] The reagents were co-dialyzed against PBS, pH 7.2. The protein solutions were adjusted to the concentrations listed above by dilution using PBS dialysate. […] The protein solutions were prepared as described above for the MAb binding experiments. All ITC experiments were performed on an ITC₂₀₀ microcalorimeter (MicroCal, LLC) at 25° C. […] IGF-1R bispecific antibodies. A four minute equilibration period was used between all injections with an initial delay of 60 seconds. Numerical integration of the data was performed using the ITC data analysis software supplied by MicroCal (Origin). ΔHA° (T) values were calculated based on the difference between the average heat liberated/absorbed during the binding phase of the injections and the average heat of dilution found once the receptor, IGF-1R, was saturated with MAb or BsAb.

human IGF-1R(1-903)-Fc [5] = target: T2, human IGF-1R(1-903)-Fc; assay: IGF-2 blocking ELISA: antibody titrated in 640 nM IGF-2 His on biotinylated hIGF-1R-Fc on streptavidin plates, bound ligand detected with anti-His-HRP
sIGF-1R(1-903) [6] = target: T4, sIGF-1R(1-903); assay: ITC series titration, G11 MAb into sIGF-1R(1-903) holding excess C06 MAb
Method: The protein solutions were prepared as described above for the MAb binding experiments. All ITC experiments were performed on an ITC₂₀₀ microcalorimeter (MicroCal, LLC) at 25° C. […] IGF-1R bispecific antibodies. A four minute equilibration period was used between all injections with an initial delay of 60 seconds. Numerical integration of the data was performed using the ITC data analysis software supplied by MicroCal (Origin). ΔHA° (T) values were calculated based on the difference between the average heat liberated/absorbed during the binding phase of the injections and the average heat of dilution found once the receptor, IGF-1R, was saturated with MAb or BsAb.
Both the dimeric receptor and the bivalent MAbs contain two potential binding sites.

sIGF-1R(1-903) [7] = target: T4, sIGF-1R(1-903); assay: ITC, 25 °C, antibody into sIGF-1R(1-903)
Method: as §4

human IGF-1R(1-903)-Fc [8] = target: T2, human IGF-1R(1-903)-Fc; assay: ELISA, blocking of IGF-2 His (640 nM by the table head) on biotinylated hIGF-1R-Fc
human IGF-1R(1-903)-Fc [9] = target: T2, human IGF-1R(1-903)-Fc; assay: ELISA, blocking of 320 nM IGF-1 His on biotinylated hIGF-1R-Fc
Method: as §1, with “hIGF-1R-Fc was biotinylated using EZ-Link Sulfo-NHS-LC-Biotin according to the protocol provided by the manufacturer (Pierce Cat. No. 21335). Biotinylated human IGF-1R Fc (NB12453-9) at 5 μg/ml was added to the wells of SigmaScreen streptavidin-coated 96-well plates (Sigma, Cat. No. M5432-5EA) at 100 μL/well and incubated overnight at 2-8° C. The plates were then washed four times with 200 μL/well PBST. […] The dilutions” for “The dilutions”

[10] = target: T3, human IGF-1R on H322M non-small cell …; assay: flow cytometry on H322M cells
Method: as §3

sIGF-1R(1-903) [11] = target: T4, sIGF-1R(1-903); assay: equilibrium solution-phase SPR, free sIGF-1R(1-903) read on G11 surface
[12] = target: T3, human IGF-1R on H322M non-small cell …; assay: cell-based or functional assay
[13] = target: T3, human IGF-1R on H322M non-small cell …; assay: flow cytometry on H322M cells, anti-human Fc PE secondary (FIG. 55B)
Method: as §3

human IGF-1R(1-903)-Fc [14] = target: T2, human IGF-1R(1-903)-Fc; assay: IGF-1 blocking ELISA: antibody titrated in 320 nM IGF-1 His on biotinylated hIGF-1R-Fc on streptavidin plates, bound ligand detected with anti-His-HRP
Method: as §1, §2

[15] = target: T5, hIGF-1R-Fc mutant SD012 (E303G) (human, UniProt P08069 31-933); assay: SPR, Fab over captured mutant hIGF-1R-Fc
T5 construct: not shown: human IgG1 Fc, C-terminal tag
T5 sequence (P08069 31-933 E333G): as the sequence (P08069 31-933) above, with E303G counted along it
Method: (§5) Surface plasmon resonance (SPR) experiments were performed on a Biacore 3000 instrument set to 25° C. […] The antibody sensorchip surfaces were prepared by injecting each antibody (diluted 100 μg/mL in 10 mM Acetate, pH 4.0) over EDC/NHS-activated sensorchip surfaces according to the standard protocol of the manufacturer. […] Both hIGF-1R-Fc and mIGF-1R-Fc proteins oligomerize due to the incorporation of two separate homodimeric regions (IGF-1R and IgG1-Fc). […] After, completion of the receptor-Fc loading step, flow rates were elevated to 5 μl/min. […] Dissociation was measured for 7 minutes after the antibody injections were complete. Finally, the flow rate was elevated to 30 μL/min and the chip surfaces were regenerated by 2×10 μL injections of 0.1 M glycine, pH 2.

[16] = target: T6, hIGF-1R-Fc mutant SD008 (S257F) (human, UniProt P08069 31-933); assay: SPR, Fab over captured mutant hIGF-1R-Fc
T6 construct: not shown: human IgG1 Fc, C-terminal tag
T6 sequence (P08069 31-933 S287F): as the sequence (P08069 31-933) above, with S257F counted along it
Method: as §5

[17] = target: T7, hIGF-1R-Fc mutant SD202 (D250S) (human, UniProt P08069 31-933); assay: SPR, Fab over captured mutant
T7 construct: not shown: human IgG1 Fc, C-terminal tag
T7 sequence (P08069 31-933 D280S): as the sequence (P08069 31-933) above, with D250S counted along it
Method: as §5

[18] = target: T8, hIGF-1R-Fc mutant SD201 (D248A) (human, UniProt P08069 31-933); assay: SPR, Fab over captured mutant
T8 construct: not shown: human IgG1 Fc, C-terminal tag
T8 sequence (P08069 31-933 D278A): as the sequence (P08069 31-933) above, with D248A counted along it
Method: as §5

[19] = target: T9, hIGF-1R-Fc mutant SD203 (N254A) (human, UniProt P08069 31-933); assay: SPR, antibody over captured mutant
T9 construct: not shown: human IgG1 Fc, C-terminal tag
T9 sequence (P08069 31-933 N284A): as the sequence (P08069 31-933) above, with N254A counted along it
Method: as §5

[20] = target: T10, hIGF-1R-Fc mutant SD207 (G265Y) (human, UniProt P08069 31-933); assay: SPR, antibody over captured mutant
T10 construct: not shown: human IgG1 Fc, C-terminal tag
T10 sequence (P08069 31-933 G295Y): as the sequence (P08069 31-933) above, with G265Y counted along it
Method: as §5

T1 sequence (P08069 other isoform, or with tags, fused parts or gaps): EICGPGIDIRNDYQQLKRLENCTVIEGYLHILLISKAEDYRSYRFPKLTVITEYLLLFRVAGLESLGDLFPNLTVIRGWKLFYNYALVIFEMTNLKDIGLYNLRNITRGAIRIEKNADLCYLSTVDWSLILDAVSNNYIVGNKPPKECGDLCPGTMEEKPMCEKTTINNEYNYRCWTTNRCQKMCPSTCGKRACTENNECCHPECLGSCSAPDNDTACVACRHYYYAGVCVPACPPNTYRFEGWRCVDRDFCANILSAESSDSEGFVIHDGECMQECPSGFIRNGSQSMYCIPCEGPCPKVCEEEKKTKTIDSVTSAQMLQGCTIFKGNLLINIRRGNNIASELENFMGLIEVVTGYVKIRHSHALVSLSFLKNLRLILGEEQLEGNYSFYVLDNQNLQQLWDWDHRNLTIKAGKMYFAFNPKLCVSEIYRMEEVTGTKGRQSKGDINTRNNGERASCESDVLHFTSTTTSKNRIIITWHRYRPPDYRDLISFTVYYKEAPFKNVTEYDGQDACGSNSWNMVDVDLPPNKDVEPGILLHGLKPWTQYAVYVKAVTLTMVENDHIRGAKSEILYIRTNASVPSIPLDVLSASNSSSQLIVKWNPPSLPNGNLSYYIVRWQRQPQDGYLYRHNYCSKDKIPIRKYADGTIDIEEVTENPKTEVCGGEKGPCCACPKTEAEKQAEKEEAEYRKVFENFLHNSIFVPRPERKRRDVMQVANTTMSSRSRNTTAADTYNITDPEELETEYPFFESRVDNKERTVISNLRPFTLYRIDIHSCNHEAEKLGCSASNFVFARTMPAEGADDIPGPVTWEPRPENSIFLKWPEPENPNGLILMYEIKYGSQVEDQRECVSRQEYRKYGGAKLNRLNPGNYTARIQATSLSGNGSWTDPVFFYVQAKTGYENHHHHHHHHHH

B1: M14-G11 antibody (antibody, V domains shown)
VH: EVQLLESGGGLVQPGGSLRLSCAASGFTFSNYPMYWVRQAPGKGLEWVSRISSSGGRTVYADSVKGRFTISRDNSKNTLYLQMNSLRAEDTAVYYCARDRWSRSAAEYGLGGYWGQGTLVTVSS
VL: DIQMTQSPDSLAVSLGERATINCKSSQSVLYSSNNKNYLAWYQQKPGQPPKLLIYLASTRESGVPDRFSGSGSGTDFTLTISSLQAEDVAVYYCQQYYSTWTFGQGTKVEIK
notes: Fully human full-length antibody; also called M14.G11.G4.P.agly; G11.G4P.agly
For B1, the “IC50 (read off the curve)” value [1] was ~20 nM, the “IC50 (read off the curve)” value (human IGF-1R(1-903)-Fc [2]) was ~2 nM and the EC50 [3] was 0.44 nM. For the same binder, the “-TΔS” value (sIGF-1R(1-903) [4]) was 14.8 kcal/mol, the Kd (sIGF-1R(1-903) [4]) was 6 nM and the ΔG (sIGF-1R(1-903) [4]) was -11.2 kcal/mol. The “IC50 (read off the curve)” value (human IGF-1R(1-903)-Fc [5]) was ~2 nM, the “ΔH°” value (sIGF-1R(1-903) [6]) was -16.2 kcal/mol and the “ΔH°” value (sIGF-1R(1-903) [7]) was -26.6 kcal/mol. For the same binder, the IC50 (human IGF-1R(1-903)-Fc [8]) was 7.9 nM, the IC50 (human IGF-1R(1-903)-Fc [9]) was 13 nM and the EC50 [10] was < 1 nM. For the same binder, the Kd (sIGF-1R(1-903) [11]) was 0.1 nM, the “n (#G11 specific binding sites)” value (sIGF-1R(1-903) [11]) was 1.1 and the “reduction of surface IGF-1R after 24 hours (FACS, H322M cells)” value [12] was > 70%. For the same binder, the EC50 [13] was 0.72 nM.

B2: M14-G11 Fab (Fab, V domains shown)
VH: B1 VH
VL: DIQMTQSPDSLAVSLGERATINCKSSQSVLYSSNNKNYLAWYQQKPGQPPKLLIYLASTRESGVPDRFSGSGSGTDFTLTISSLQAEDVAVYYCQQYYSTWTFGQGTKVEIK
notes: Enzymatically derived Fab
B2 was tested, and the “IC50 (read off the curve)” value (human IGF-1R(1-903)-Fc [14]) was ~6 nM, the “fold loss in affinity (KD) against wild type” value [15] was ~3 fold and the “fold loss in affinity (KD) against wild type” value [16] was ~3 fold. The binding result [17] was “no binding (tested: up to 30 nM Fab)”, the binding result [18] was “no binding (tested: up to 30 nM Fab)” and the Kd (sIGF-1R(1-903) [11]) was 4 nM. The “n (#G11 specific binding sites)” value (sIGF-1R(1-903) [11]) was 1.7.

B3: P1E2 chimeric antibody (antibody, V domains shown)
VH: QVQLQQPGAELVKPGASVKLSCKASGYTFTSYWMHWVKQRPGQGLEWIGEINPTYGRSNYNEKFKSKATLTVDKSSSTAYMQLSSLTSEDSAVYYCARLVRLRYFDVWGAGTTVTVSS
VL: DIVMTQAAFSNPVTLGTSASISCRSSKSLLHSNGITYLYWYLQKPGQSPQLLIYQMSNLASGVPDRFSSSGSGTDFTLRISRVEAEDVGVYYCAQNLELPYTFGGGTKLEIK
notes: also called DE12 Chimera; P1E2.3B12 variable domains
B3: no binding (tested: up to 30 nM antibody) [19]; no binding (tested: up to 30 nM antibody) [20].
